Assay results published in US20110300156A1 (Genmab, published 2011).
Substitutions are numbered along the chain they refer to. Each block holds one binder with its values, some of them ahead of it.

How the values were obtained:
[1] = target: T1, murine tissue factor (TF) on transfected HEK293F cells (murine, UniProt P20352 29-294); assay: FACS on transfected HEK293F cells, 30 µg/mL antibody [panel G]
T1 construct: whole, on cells; also called murine TF; TFmm
T1 sequence (looked up): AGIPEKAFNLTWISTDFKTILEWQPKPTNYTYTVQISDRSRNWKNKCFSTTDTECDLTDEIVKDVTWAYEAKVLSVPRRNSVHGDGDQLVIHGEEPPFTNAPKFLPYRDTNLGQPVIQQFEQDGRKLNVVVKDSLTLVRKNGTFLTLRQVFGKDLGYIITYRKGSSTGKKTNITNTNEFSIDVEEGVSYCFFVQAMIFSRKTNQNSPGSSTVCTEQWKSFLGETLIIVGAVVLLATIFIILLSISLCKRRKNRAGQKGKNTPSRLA

[2] = target: T2, human tissue factor (TF), membrane-bound on cells (human, UniProt P13726 33-295); assay: FACS, Bx-PC3 cells
T2 construct: whole, on cells; also called cellular TF
Procedure: (§1) Cells were resuspended in PBS (2×10⁶ cells/ml), put in 96-well V-bottom plates (50 μl/well). 50 μl of serially diluted HuMab in FACS buffer (PBS supplemented with 0.1% BSA and 0.02% Na-azide) was added to the cells and incubated for 30 minutes on ice. After washing three times with FACS buffer, 50 μl of phycoerythrin (PE)-conjugated goat anti-human IgGFc (Jackson ImmunoResearch), diluted 1:100 in FACS buffer, was added. After 30 minutes on ice (in the dark), cells were washed three times, and specific binding of the HuMabs was detected by flow cytometry on a FACSCalibur (BD Biosciences). HuMab-KLH was used as a negative control. Mouse anti-TF followed by PE-conjugated anti-mouse IgGFc was used as positive control. Binding curves were analyzed using non-linear regression (sigmoidal dose-response with variable slope) using GraphPad Prism V4.03 software (GraphPad Software, San Diego, Calif., USA).

[3] = target: T3, TFECDHis (extracellular domain of tissue factor, amino acid 1-251, with C-terminal His tag) (human, UniProt P13726 33-251); assay: SPR BIAcore 3000, HuMab immobilized, TFECDHis analyte
T3 construct: range 1-251; The stated range 1-251 starts at residue 1 of NP-001984; also called extracellular domain of TF
Procedure: Antibody binding to TF was analyzed by surface plasmon resonance in a BIAcore 3000 (GE Healthcare). TFECDHis was used for the analysis. HuMab antibodies (500 resonance units) were immobilized on the CM-5 sensor chip according to the procedure recommended by the manufacturer. Briefly, after surface activation by EDC and NHS HuMab antibody was injected over the activated CM-5 surface in 10 mM sodium-acetate, pH ranging from 4.0 to 5.5 at 5 μl/min. followed by 1 M Ethanolamine for deactivation. Concentration series of TFECDHis in HBS-EP buffer were injected over the immobilized antibodies at a flow rate of 30 μl/min for 180 sec. Regeneration of the HuMab surface was performed by injection of 10 mM Glycine-HCl pH 2.0 or 10 mM sodium acetate pH 3.0. Kinetic analysis was performed using double reference subtraction and model 1:1 (langmuir) binding analysis.

[4] = target: T2, human tissue factor (TF), …; assay: FACS on SK-OV-3 cells (~60.000 TF molecules/cell) [panel SK-OV-3 cells]
Procedure: as §1
Binding of anti-TF HuMabs to membrane-bound TF on cell lines expressing different levels of TF was determined by FACS analysis, essentially as described supra. […] Fluorescence was measured on a FACSCantoII. Binding curves were analyzed essentially as described supra, using GraphPad Prism 5 software. The amount of TF molecules on cell lines was determined by Qifi kit (Dako, Glostrup, Denmark), according to the manufacturer's instructions.

[5] = target: T2, human tissue factor (TF), …; assay: FACS, Bx-PC3 cells, 30 µg/mL
Procedure: as §1

[6] = target: T2, human tissue factor (TF), …; assay: FACS, TF transfected CHO cells (S1015-TF)
Procedure: as §1

TF (Innovin) [7] = target: T4, TF (Innovin) (UniProt P13726 33-295, limits assumed); assay: cell-based or functional assay
[8] = target: T2, human tissue factor (TF), …; assay: FACS on MDA-MB-231 cells (~900.000 TF molecules/cell) [panel MDA-MB-231 cells]
Procedure: as §1
(§2) Binding of anti-TF HuMabs to membrane-bound TF on cell lines expressing different levels of TF was determined by FACS analysis, essentially as described supra. Mouse anti-TF antibody followed by PE-conjugated anti-mouse IgGFc was used as a positive control. Fluorescence was measured on a FACSCantoII. Binding curves were analyzed essentially as described supra, using GraphPad Prism 5 software. The amount of TF molecules on cell lines was determined by Qifi kit (Dako, Glostrup, Denmark), according to the manufacturer's instructions.

[9] = target: T2, human tissue factor (TF), …; assay: FACS, TF transfected CHO cells (S1015-TF), 7.5 µg/mL
Procedure: as §1

[10] = target: T1, murine tissue factor (TF) on …; assay: FACS on transfected HEK293F cells, 30 µg/mL antibody [panel B]
[11] = target: T2, human tissue factor (TF), …; assay: FACS, A431 cells
Procedure: as §1

[12] = target: T2, human tissue factor (TF), …; assay: FACS, MDA-MB-231 cells, 30 µg/mL
Procedure: as §1

[13] = target: T3, TFECDHis (extracellular domain of …); assay: ELISA, coated TFECDHis, mean of 3
Procedure: The specificity of the obtained anti-TF HuMabs was evaluated by ELISA. ELISA plates (Microlon; Greiner Bio-One) were coated overnight at +4° C. with 0.5 μg/mL of TFECDHis in PBS, pH 7.4. Coated ELISA plates were emptied and blocked for one hour at room temperature with 2% (v/v) chicken serum (Gibco, Paisley, Scotland) in PBS and washed with PBS containing 0.05% Tween 20 (PBST). Subsequently, HuMabs, serially diluted in PBSTC (PBS supplemented with 2% (v/v) chicken serum and 0.05% (v/v) Tween-20), were incubated for 1 hr at RT under shaking conditions (300 rpm). Bound HuMabs were detected using HRP-conjugated goat-anti-human IgG antibodies (Jackson ImmunoResearch) diluted 1:5,000 in PBSTC, which were incubated for 1 hr at RT under shaking conditions (300 rpm). […] HuMab-KLH (a human monoclonal antibody against KLH (keyhole limpet haemocyanin)), was used as a negative control. Mouse anti-human TF (ERL) was used as positive control (HRP labeled anti-mouse IgG as conjugate). Binding curves were analyzed using non-linear regression (sigmoidal dose-response with variable slope) using GraphPad Prism V4.03 software.

[14] = target: T2, human tissue factor (TF), …; assay: FACS, A431 cells, 30 µg/mL
Procedure: as §1

[15] = target: T3, TFECDHis (extracellular domain of …); assay: ELISA on coated extracellular domain of TF, detection with HRP-conjugated donkey anti-human H+L
[16] = target: T2, human tissue factor (TF), …; assay: FACS on AsPC-1 cells (~175.000 TF molecules/cell) [panel AsPC-1 cells]
Procedure: as §1, §2

[17] = target: T2, human tissue factor (TF), …; assay: FACS, MDA-MB-231 cells
Procedure: as §1

[18] = target: T1, murine tissue factor (TF) on …; assay: FACS on transfected HEK293F cells, 30 µg/mL antibody [panel J]
[19] = target: T3, TFECDHis (extracellular domain of …); assay: competition ELISA, inhibition of FVIIa (100 nM) binding to coated TFECDHis
Procedure: ELISA plates were coated overnight with TFECDHis (0.5 μg/mL, 100 μL per well). Plates were emptied, blocked with PBS containing 2% (v/v) chicken serum (1 hour, RT), and emptied again. […] Plates were washed and incubated with swine-anti-rabbit IgG-HRP antibody (1:2,500; DAKO). After washing, the immune complexes were visualized using ABTS as a substrate.

[20] = target: T2, human tissue factor (TF), …; assay: cell-based or functional assay
TF (Innovin) [21] = target: T4, TF (Innovin); assay: cell-based or functional assay; remark: listed apart in the source
[22] = target: T1, murine tissue factor (TF) on …; assay: FACS on transfected HEK293F cells, 30 µg/mL antibody [panel H]
[23] = target: T2, human tissue factor (TF), …; assay: cell-based or functional assay; remark: listed apart in the source
[24] = target: T2, human tissue factor (TF), …; assay: cell-based or functional assay; remark: listed apart in the source

binding result [1]: no binding (tested: 30 µg/mL)
B1: anti-TF HuMab 042 (antibody, V domains shown)
VH: EVQLLESGGGLVQPGGSLRLSCAASGFTFSSYGMSWVRQAPGKGLEWVSVISGSGGTTYYADSVKGRFTISRDNSKNTLYLQMNSLRAEDTAVYYCAKAPWTYYFDYWGQGTLVTVSS
VL: not shown
notes: Human monoclonal antibody from HuMab mice

EC50 [2]: 1.01 nM | Kd [3]: 3.15 nM | EC50 (read off the curve) [4]: ~0.02 µg/mL | Max MFI [5]: 1280 | EC50 [6]: 1.32 nM | IC50, inhibition of blood coagulation (TF induced clotting time) (TF (Innovin) [7]): 1.6 nM | EC50 (read off the curve) [8]: ~0.03 µg/mL | Max MFI [9]: 5650 | binding result [10]: no binding (tested: 30 µg/mL) | EC50 [11]: 0.2 nM | Max MFI [12]: 2140 | EC50 [13]: 0.16 nM | Max MFI [14]: 2610 | EC50 (read off the curve) [15]: ~0.1 µg/mL | EC50 (read off the curve) [16]: ~0.07 µg/mL
B2: anti-TF HuMab 011 (antibody, V domains shown)
VH: EVQLLESGGGLVQPGGSLRLSCAASGFTFSNYAMSWVRQAPGKGLEWVSSISGSGDYTYYTDSVKGRFTISRDNSKNTLYLQMNSLRAEDTAVYYCARSPWGYYLDSWGQGTLVTVSS
VL: DIQMTQSPPSLSASAGDRVTITCRASQGISSRLAWYQQKPEKAPKSLIYAASSLQSGVPSRFSGSGSGTDFTLTISSLQPEDFATYYCQQYNSYPYTFGQGTKLEIK
notes: Human monoclonal antibody from HuMab mice; also called HuMab-TF-11

EC50 [2]: 0.84 nM | EC50 [17]: 0.53 nM | Kd [3]: 14.1 nM | binding result [18]: no binding (tested: 30 µg/mL) | Max MFI [5]: 1260 | max inhibition [19]: 90% | EC50 [6]: 1.32 nM | IC50, inhibition of blood coagulation (TF induced clotting time) (TF (Innovin) [7]): 0.2 nM | Max MFI [9]: 5410 | EC50 [11]: 0.83 nM | Max MFI [12]: 2290 | EC50 [13]: 0.18 nM | Max MFI [14]: 3140
B3: anti-TF HuMab 092-A09 (antibody, V domains shown)
VH: B1 VH with S30N, S31N, G33A, V50S, T57R, Y80F, A99T, T102G
VL: B2 VL with P9S, A15V
notes: as for B1

EC50 [2]: 1.88 nM | EC50 [17]: 0.87 nM | % max inhibition of FVIIa induced ERK phosphorylation (A431) [20]: 45% | IC50, inhibition of FVIIa induced ERK phosphorylation (A431) [20]: > 66.6 nM | Max MFI [5]: 1140 | IC50 [19]: 0.8 nM | max inhibition [19]: 54% | EC50 [6]: 2.13 nM | Max MFI [9]: 5020 | EC50 [11]: 1.45 nM | % max inhibition of FXa generation (TF (Innovin) [21]): 3% | Max MFI [12]: 1880 | binding result [22]: no binding (tested: 30 µg/mL) | Max MFI [14]: 2650 | EC50 of ADCC, A431 cells [23]: 0.19 nM | EC50 of ADCC, Bx-PC3 cells [23]: 0.12 nM | EC50 of ADCC, MDA-MB-231 cells [23]: 0.08 nM | IC50, inhibition of FVIIa induced IL-8 release (MDA-MB-231) [24]: 74.6 nM | max inhibition of FVIIa induced IL-8 release (MDA-MB-231) [24]: 17.2%
B4: anti-TF HuMab 044 (antibody, V domains shown)
VH: QVQLVESGGGVVQPGRSLRLSCAASGFTFSDYAMHWVRQAPGKGLEWVAVIPYDGDNKYYADSVKGRFTISRDNSKNTLYLQMNSLRAEDTAVYYCAREDWGLEVDYWGQGALVTVSS
VL: AIQLTQSPSSLSASVGDRVTITCRASQGINSALAWYQQKPGKAPKLLIYDASSLESGVPSRFSGSGSGTDFTLTISSLQPEDFATYYCQQFNSYPLTFGGGTKVEIK
notes: as for B1
